# Data reported in PMC8451032.
# Biological target: m971 scFv with short (GGGGS) linker
# Test: SEC
substance,measurement,value
m971 scFv with short (GGGGS) linker,stoichiometry N,2
